Measurements reported in paper PMC4325984 (The Biochemical journal, 2015).
Blank lines part the entries; values can stand above or below the binder they belong to.

Target: rabbit muscle ADP-G-actin (rabbit, UniProt P68135 1-377)
Assay: ITC

Kd: 32.2 nM
dH: -2300 ± 71.1 cal/mol
stoichiometry N: 1
B1: UNC-60A (natural protein)
chain: MSSGVMVDPDVQTSFQKLSEGRKEYRYIIFKIDENKVIVEAAVTQDQLGITGDDYDDSSKAAFDKFVEDVKSRTDNLTDCRYAVFDFKFTCSRVGAGTSKMDKIIFLQICPDGASIKKKMVYASSAAAIKTSLGTGKILQFQVSDESEMSHKELLNKLGEKYGDH

Kd: 8.62 nM
dH: -6720 ± 117 cal/mol
B2: UNC-60B (natural protein)
chain: MASGVKVDPSCKNAYDLLHNKHQHSYIIFKIDKNDTAIVVEKVGEKNAPYAEFVEEMKKLVEDGKECRYAAVDVEVTVQRQGAEGTSTLNKVIFVQYCPDNAPVRRRMLYASSVRALKASLGLESLFQVQASEMSDLDEKSVKSDLMSNQRI
